From PMC13185609

What was measured:
[1] = molecular target: 246.F3 Env N276D (pseudovirus made in Expi293F) (HIV-1 (subtype AC, 246.F3))
[2] = molecular target: 246.F3 Env N276K (pseudovirus) (HIV-1 (subtype AC, 246.F3))
[3] = molecular target: 246.F3 Env, wild type (pseudovirus 246.F3-SG3 WT) (HIV-1 (subtype AC, 246.F3))
[4] = molecular target: Env of the infectious molecular clone 246.F3-NL4.3+BN (HIV-1 (NL4.3) | HIV-1 (subtype AC, 246.F3))

For VRC01 (antibody), the neutralisation of pseudovirus made in Expi293F cells, TZM-bl cells; fold change in sensitivity against wild-type 246.F3 [1] was 5 fold, the IC50 of neutralisation of pseudovirus, TZM-bl cells (highest concentration tested 50 µg/mL) [2] was > 50 mg/L and the IC50 of neutralisation of pseudovirus, TZM-bl cells [3] was 0.204 mg/L. For the same substance, the IC50 of neutralisation of the 246.F3-NL4.3+BN virus stock, TZM-bl cells [4] was 0.35 mg/L and the IC80 of neutralisation of the 246.F3-NL4.3+BN virus stock, TZM-bl cells [4] was 0.85 mg/L.
